The values below come from ChEMBL document CHEMBL2074196, “Drug absorption limited by P-glycoprotein-mediated secretory drug transport in human intestinal epithelial Caco-2 cell layers” (Pharm Res, 1993).

The subject of this data set is CC[C@]1(O)C[C@@H]2CN(CCc3c([nH]c4ccccc34)[C@@](C(=O)OC)(c3cc4c(cc3OC)N(C)[C@H]3[C@@](O)(C(=O)OC)[C@H](OC(C)=O)[C@]5(CC)C=CCN6CC[C@]43[C@@H]65)C2)C1. As to the kind of experiment: TP_TRANSPORTER: transepithelial transport (basal to apical) in Caco-2 cells. The format is functional, cell-based. (Caco-2 cells form a polarised layer with tight junctions and transporters.)

In general, Km refers to the substrate concentration at which the rate is half of its maximum. On to “ATP-dependent translocase ABCB1 (Homo sapiens)”, for which the Km was determined as 19 µM.
